Values of other authors, collected in patent publication US20210000129A1, “COMPOSITION FOR LOWERING BLOOD PRESSURE AND/OR REDUCING NEUTRAL FATS” (MORINAGA MILK INDUSTRY CO., LTD., priority 2018, published 2021).

Assays:
[1] = target: angiotensin converting enzyme (Homo sapiens, UniProt P12821); conditions: known from References 1 to 3
[2] = target: dipeptidyl-peptidase IV (Homo sapiens, UniProt P27487); conditions: known from References 1 to 3
Chain of dipeptidyl-peptidase IV (P27487 whole entry, species assumed): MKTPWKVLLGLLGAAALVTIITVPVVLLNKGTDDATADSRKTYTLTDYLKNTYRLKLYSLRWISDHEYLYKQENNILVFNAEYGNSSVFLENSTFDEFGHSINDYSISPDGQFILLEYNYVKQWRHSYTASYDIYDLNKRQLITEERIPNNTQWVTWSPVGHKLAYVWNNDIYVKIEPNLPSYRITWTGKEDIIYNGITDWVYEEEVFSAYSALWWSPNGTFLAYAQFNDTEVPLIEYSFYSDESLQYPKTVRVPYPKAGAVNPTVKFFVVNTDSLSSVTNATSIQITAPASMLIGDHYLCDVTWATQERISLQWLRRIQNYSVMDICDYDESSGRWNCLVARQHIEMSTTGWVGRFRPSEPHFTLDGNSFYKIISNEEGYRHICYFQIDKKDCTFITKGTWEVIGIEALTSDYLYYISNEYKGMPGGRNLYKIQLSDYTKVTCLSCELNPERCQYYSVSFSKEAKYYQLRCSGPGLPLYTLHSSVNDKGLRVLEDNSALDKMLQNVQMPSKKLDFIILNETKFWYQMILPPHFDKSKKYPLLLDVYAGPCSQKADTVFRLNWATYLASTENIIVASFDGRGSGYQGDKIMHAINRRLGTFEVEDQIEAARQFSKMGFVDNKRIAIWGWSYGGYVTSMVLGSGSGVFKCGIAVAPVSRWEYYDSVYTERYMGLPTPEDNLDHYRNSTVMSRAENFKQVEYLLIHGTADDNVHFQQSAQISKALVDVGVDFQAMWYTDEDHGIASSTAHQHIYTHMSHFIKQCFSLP

Chain of angiotensin converting enzyme (P12821 30-1306, species assumed): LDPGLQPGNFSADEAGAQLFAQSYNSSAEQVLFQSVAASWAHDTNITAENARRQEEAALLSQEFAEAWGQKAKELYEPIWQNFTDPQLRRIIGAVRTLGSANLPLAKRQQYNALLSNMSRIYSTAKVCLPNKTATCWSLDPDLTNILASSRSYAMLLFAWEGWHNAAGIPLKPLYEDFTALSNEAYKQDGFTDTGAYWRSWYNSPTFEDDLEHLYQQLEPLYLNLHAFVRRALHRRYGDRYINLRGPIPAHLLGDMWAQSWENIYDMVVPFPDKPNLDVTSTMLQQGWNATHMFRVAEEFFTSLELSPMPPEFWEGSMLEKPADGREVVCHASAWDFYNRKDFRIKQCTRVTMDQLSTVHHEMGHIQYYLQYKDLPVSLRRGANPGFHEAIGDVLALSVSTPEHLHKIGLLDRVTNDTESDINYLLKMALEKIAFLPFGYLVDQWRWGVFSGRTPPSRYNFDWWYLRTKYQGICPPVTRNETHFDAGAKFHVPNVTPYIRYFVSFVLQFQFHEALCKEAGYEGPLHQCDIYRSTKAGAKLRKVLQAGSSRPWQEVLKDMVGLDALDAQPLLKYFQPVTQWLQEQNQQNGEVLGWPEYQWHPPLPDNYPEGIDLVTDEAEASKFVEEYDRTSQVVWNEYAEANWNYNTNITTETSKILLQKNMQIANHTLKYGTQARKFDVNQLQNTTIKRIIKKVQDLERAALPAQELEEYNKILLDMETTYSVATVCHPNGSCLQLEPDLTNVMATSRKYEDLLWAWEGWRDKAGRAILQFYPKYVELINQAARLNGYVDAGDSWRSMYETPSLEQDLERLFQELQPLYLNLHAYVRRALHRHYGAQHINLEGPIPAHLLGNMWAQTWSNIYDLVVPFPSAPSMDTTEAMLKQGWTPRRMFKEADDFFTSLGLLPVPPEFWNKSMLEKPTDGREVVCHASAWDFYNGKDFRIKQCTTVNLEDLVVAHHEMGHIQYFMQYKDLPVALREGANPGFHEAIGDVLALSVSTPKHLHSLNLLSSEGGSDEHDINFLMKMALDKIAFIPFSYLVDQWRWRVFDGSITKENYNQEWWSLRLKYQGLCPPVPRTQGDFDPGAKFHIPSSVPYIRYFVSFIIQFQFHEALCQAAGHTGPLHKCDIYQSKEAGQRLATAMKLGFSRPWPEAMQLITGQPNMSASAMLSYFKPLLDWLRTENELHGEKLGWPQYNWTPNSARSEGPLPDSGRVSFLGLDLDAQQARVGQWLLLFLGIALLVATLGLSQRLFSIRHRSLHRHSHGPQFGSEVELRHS

## Met-Lys-Pro (MKP) [tripeptide MKP]
[1]
  angiotensin converting enzyme-inhibiting action: angiotensin converting enzyme-inhibiting action
[2]
  dipeptidyl-peptidase IV-inhibiting action: dipeptidyl-peptidase IV-inhibiting action
